Measurements from the RNAGym collection of RNA variant scans (doi:10.1073/pnas.2313332121).

B1: TPR t1 (parent)
chain: GACCAAUCUGCCCUCAGAGCUCGAGAACAUCUUCGGAUGCAGAGGAGGCAGGCUUCGGUGGCGCGAUAGCGCCAACGUCCUCAACCUCCAAUGCAUCCCACCACAUGAUGAUGCCUGAAGAGCCUUGGUUUUUUG

Variants of: B1
Test: polymerase ribozyme fitness, log enrichment relative to wild type (log ratio); higher = more active; in vitro selection for triplet polymerase activity
Summary of the method: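 Both subunits of a heterodimeric triplet polymerase ribozyme were given their own mutant library, built by PCR and transcribed. Each library was annealed with a biotinylated primer, the partner subunit and triplets, incubated frozen at −7 °C, and its extended constructs gel-excised, captured on streptavidin beads and amplified by RT-PCR, all in one round done in triplicate. Fitness is the logarithm of genotype enrichment relative to wild-type enrichment, with replicates averaged by inverse-variance weighting. That logarithm is base 2, and Illumina-sequenced genotypes needed ≥10 input reads and ≥1 read per output.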

Variant	polymerase ribozyme fitness (log ratio)
GACCAAUCUGCCCUCAGAGCUCGAGAACAUCUUCGCAUGCAGAGGAGGCAGGCUUCGGUGGCGCGAUAGCGCCAAGGUCCUCAACCUCCAAUGCAUCCCACCACAUGAUGAUGCCUGAAGAGCCUUGGUUUUUUG [G36C C76G]	-1.25
GACCAAUCUGCCCUCAGAGCUCGAGAACAUCUUCGAAUGCAGAGGAGGCAGGCUUCGGUGGCACGAUAGCGCCAACGUCCUCAACCUCCAAUGUAUCCCACCACAUGAUGAUGCCUGAAGAGCCUUGGUUUAUUG [G36A G63A C94U U132A]	-1.7
GACCAAUCUGCCCUCAGAGCUCGAGAACAUCUUCGAAUGCAGAGGAGGCAGGCUUCGGUGUCGCGAUAGCGCCAACGUCCUCAACCUCCAAUGCAGCCCACCACAUGAUGAUGCCUGAAGAGCCUUGGUUUUUUG [G36A G61U U96G]	-1.71
GACCAAUCUGCCCUCAGAGCUCGAGAACAUCUUCGAAUGCAGAGGAGGCAGGCUUCGGUGUCGCGAUAGCGGCAACAUCCUAAACCUCCAAUGCAUCUCACCACAUGAUGAUGCCUGAAGAGCCUUGGUUUUUUG [G36A G61U C72G G77A C82A C98U]	-6
GACCAAUCUGCCCUCAGAGCUCGAGAACAUCUUCGCAUGCAGAGGAGGAAGGAUUCGGUGCCGCGAUAGCGCCAAUGUCCUCAACCUCCAAUGCAUCCCACCACAUGAUGAUGCCUGAGGAGCCUUGGUUUUUUG [G36C C49A C53A G61C C76U A119G]	-6.33
GACCAAUCUGCCCUCAGAGCUCGAGAACAUCUUCGCAUGCAGAGGAGGCCGGCUUCGGUGGCGCGAUAGCGCCAACGUCCUCAACCUCCAAUGCAUCCCACCACAUGAUGAUGUCUGAAGAGCCUUGGUUUUUUG [G36C A50C C114U]	-6.09
GACCAAUCUGCCCUCAGAGCUCGAGAACAUCUUCGCAUGCAGAAGAGGCAGGCUUCGGUGGCGCGAUAGCGCCUACGUGCUCAACCUCCAAUGCAUCCCAUCACAUGAUGAUGCCUGAAGAGCCUUGGUUUUUUG [G36C G44A A74U C79G C101U]	-4.54
GACCAAUCUGCCCUCAGAGCUCGAGAACAUCUUCGAAUGCAGAGGAGGCAGACUUCGGUGGCUCGAUAGCGCCAACGUCCUCAACCUCCAAUGCAUCCCACCACAUGAUGAUGCCUGAAGAGCCUUGGUUUUUUG [G36A G52A G63U]	-3.22
GACCAAUCUGCCCUCAGAGCUCGAGAACAUCUUCGCAUGCAGAGGAGGUAGGCUUCGGUGGCGCGAUAGCGCCGACGUCCUCAACCUCCAAUGCAUCCCAGCACAUGAUGAUGCCUGAUGAGCCUUGGUUUUUUG [G36C C49U A74G C101G A119U]	-3.8
GACCAAUCUGCCCUCAGAGCUCGAGAACAUCUUCGCAUGCAGAGCAGGCAGGCUUCGGUGGCGCGAUAGCGCCAACGUCCUCAACCUCCAAUGCAUCCCACCACAUGAUGAUGCCUGAAGAGCCUUGGUUUUUUG [G36C G45C]	-2.04
GACCAAUCUGCCCUCAGAGCUCGAGAACAUCUUCGCAUGCAGAGGAGGCAGGCUUCGGUGGCGCGAUAGCGCCAACGUCCUCAACCUCCAAUGCAUCCCACUACAUGAUGAUGCCUGAAGAGCCUUGGUUUUUUG [G36C C102U]	-3.5
GACCAAUCUGCCCUCAGAGCUCGAGAACAUCUUCGAAUGCAGAGGAGGCAGGCUUCGGUGCCGCGAUAGCGCCAACGUCCUCAACCUCCAAUGCAUCCCACCACAUGAUGAUGCCUGAAGAGCCUUGGUUUUUUG [G36A G61C]	-2.63
GACCAAUCUGCCCUCAGAGCUCGAGAACAUCUUCGCUUGCAGAGGAGCCAGGCUUCGGUGGCGCGAUAGCGCCAACGUCCUCAACCUCCAUUGCAUCCCACCACAUGAUGAUGCUUGAAGAGCCUUGGUUUUUUG [G36C A37U G48C A91U C115U]	-4.92
GACCAAUCUGCCCUCAGAGCUCGAGAACAUCUUCGAAUGCAGAGGAGGCAGGCUUCGGUGGCGCGAUAGCGCCAACGUCCACAACCUCCAAUGCAUCCCACCACAUGAUGAUGCCUGAAGAGCCUUGGUUUUUUG [G36A U81A]	-1.3
GACCAAUCUGCCCUCAGAGCUCGAGAACAUCUUCGAAUGCAGAGGAGGCAGGCUUCGCUGGCGCGAUAGCGCCAACGUCCUCAACCUCCAAUGCAUCCCACCACAUGAUGAUGCCGGAAGAGCCUUGGUUUUUUG [G36A G58C U116G]	-3.49
GACCAAUCUGCCCUCAGAGCUCGAGAACAUCUUCGAAUGCAGAGGAGGCAGACUUCGGUGGCGCGGUAGCGCCAACGUCCUCAACCUCCAAUGCAUCCCACCACAUGAUGAUGCCUGAAGAGCCUUGGUUUUUUG [G36A G52A A66G]	-2.6
GACCAAUCUGCCCUCAGAGCUCGAGAACAUCUUCGAAUGCAGAGGAGGCAGGCUUCGGUGGCGCGAUAGCGCCAACGUCCUCAACCUCCAAUGCAGCCCACCACAUGAUGAUGCCUGAAGAGCCUUGGUUUUUUG [G36A U96G]	-1.67
GACCAAUCUGCCCUCAGAGCUCGAGAACAUCUUCGAAUGCAGAGGAGGCAGGCUUCGGUGGCGCGAUAGCGCCAACGUCCUCAACCUCCAAUGCAUCCCACCACAUGAUGAUGCCUGAAGAGCCUUCGUUUUUUG [G36A G127C]	-1.81
GACCAAUCUGCCCUCAGAGCUCGAGAACAUCUUCGCAUGCAGAGGAGGCAGGCUUCGGUGGCGCGAUAGGGCCAACGUCCUCAACCUCCAAUGCAUCCCACCACAUGAUCAUGCCUGAAGAGCCUUGGGUUUUUG [G36C C70G G110C U129G]	-5.33
GACCAAUCUGCCCUCAGAGCUCGAGAACAUCUUCGAAUGCAGAGGAGGCAGGCUGCGGUGGCGCGAUAGCGCCAACGUCCUCAACCUCCAAUGCAUCCCACCACAUGAUGAUGCCUGAACAGCCUUGGUUUUUUG [G36A U55G G120C]	0.249
GACCAAUCUGCCCUCAGAGCUCGAGAACAUCUUCGCCUGCGGAGGAGGCAGGCUUCGGUGUCGCGAUAGCGCCAACGUCCUCAACCUCCAAUGCAUCCCACCACAUGAUGAUGCCUGAAGAGCCUUGGUUUUUUG [G36C A37C A41G G61U]	-4.4
